# Assay results taken from patent US11155602B2, “Polypeptides targeting HIV fusion” (priority 2015, dated 2021).
# Test system: NL-Rluc virus
# Assay: Combinectin potency assay: antiviral EC50, NL-Rluc virus in MT-2 cells, luciferase readout
# Assay type: cell-based, HIV-1
# Conditions: Anti-N17 Adnectin - HIV fusion peptide inhibitor Combinectin, Table 4
# Summary of the method: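 MT-2 cells infected with replication-competent NL-Rluc HIV (nef replaced by Renilla luciferase) at MOI 0.01 for 1 h, then added to threefold-diluted peptides (11 concentrations, triplicate). After 4–5 days, luciferase measured by Dual Luciferase; EC50 relative to no-peptide wells.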
row,Molecule,EC50 [nM]
1,"412 (protein, Anti-N17 Adnectin - HIV fusion peptide inhibitor Combinectin) MGHHHHHHGGSVSDVPRDLEVVAATPTSLLISWEYKVNAYRYYRITYGETGGNSPVQEFTVPSVLSTATISGLKPGVDYTITVYAVTYGVDSDPISINYRTEIDGGGGSGGGGSGGGGSGGGGSEYEARIEALIRAAQEQQEKNEAALRELYKWAS",2980
2,"413 (protein, Anti-N17 Adnectin - HIV fusion peptide inhibitor Combinectin) MGHHHHHHGVSDVPRDLEVVAATPTSLLISWKYKVHPYRYYRITYGETGGNSPVQEFTVPSVLSTATISGLKPGVDYTITVYAVTYGVNSLPISINYRTEIDGGGGSGGGGSGGGGSGGGGTEYEARIEALIRAAQEQQEKNEAALRELKEWASIWN",6
3,"411 (protein, Anti-N17 Adnectin - HIV fusion peptide inhibitor Combinectin) MGHHHHHHGGSVSDVPRDLEVVAATPTSLLISWEYKVNAYRYYRITYGETGGNSPVQEFTVPSVLSTATISGLKPGVDYTITVYAVTYGVDSDPISINYRTEIDGGGGSGGGGSGGGGSGGGGTIAEYAARIEALIRAAQEQQEKNEAALRELYKWAS",4340
4,"420 (protein, Anti-N17 Adnectin - HIV fusion peptide inhibitor Combinectin) MGHHHHHHGGSVSDVPRDLEVVAATPTSLLISWEYKVHPYRYYRITYGETGGNSPVQEFTVPSVLSTATISGLKPGVDYTITVYAVTYGDDSAPISINYRTEIDGGGGSGGGGSGGGGSGGGGSRIEALIRAAQEQQEKNEAALRELDKWAS",8
5,"428 (protein, Anti-N17 Adnectin - HIV fusion peptide inhibitor Combinectin) MGHHHHHHTSGVSDVPRDLEVVAATPTSLLISWDAPAVTVGWYHIGYNVEGEPASYQYFRVPGSKSTATISGLKPGVEYMIFVNAVTGSGAREEFSLPISINYRTEIDGGGGSGGGGSGGGGSGGGGSEYEARIEALIRAAQEQQEKNEAALRELDKWTGVWGNYEKV",50
6,"414 (protein, Anti-N17 Adnectin - HIV fusion peptide inhibitor Combinectin) MGHHHHHHTSGVSDVPRDLEVVAATPTSLLISWDAPAVTVGWYHIGYNVEGEPASYQYFRVPGSKSTATISGLKPGVEYMIFVNAVTGSGAREEFSLPISINYRTEIDGGGGSGGGGSGGGGSGGGGSEYEARIEALIRAAQEQQEKNEAALRELDKWTGVWGNYEKV",4
7,"422 (protein, Anti-N17 Adnectin - HIV fusion peptide inhibitor Combinectin) MGHHHHHHGVSDVPRDLEVVAATPTSLLISWKYKVHPYRYYRITYGETGGNSPVQEFTVPSVLSTATISGLKPGVDYTITVYAVTYGVNSLPISINYRTEIDGGGGSGGGGSGGGGSGGGGTEYEARIEALIRAAQEQQEKNEAALRELDK",3
8,"421 (protein, Anti-N17 Adnectin - HIV fusion peptide inhibitor Combinectin) MGHHHHHHGVSDVPRDLEVVAATPTSLLISWVAGAEDYQYYRITYGETGGNSPVQEFTVPHDLVTATISGLKPGVDYTITVYAVTDMMHVEYTEHPISINYRTEIDGGGGSGGGGSGGGGSGGAIAEYAARIEALIRAAQEQQEKNEAALRELDKWAS",50
9,"415 (protein, Anti-N17 Adnectin - HIV fusion peptide inhibitor Combinectin) MGHHHHHHGVSDVPRDLEVVAATPTSLLISWDAPAVTVRYYRITYGETGGNSPVQEFTVPGSKSTATISGLKPGVDYTITVYAVTGRGESPASSKPISINYRTEIDGGGGSGGGGSGGGGSGGGGSRIEALIRAAQEQQEKNEAALRELFKWAS",> 1000
10,"419 (protein, Anti-N17 Adnectin - HIV fusion peptide inhibitor Combinectin) MGHHHHHHGVSDVPRDLEVVAATPTSLLISWDAPAVTVRYYRITYGETGGNSPVQEFTVPGSKSTATISGLKPGVDYTITVYAVTGRGESPASSKPISINYRTEIDGGGGSGGGGSGGGGSGGGGSRIEALIRAAQEQQEKNEAALRELQKWAS",> 1000
11,"418 (protein, Anti-N17 Adnectin - HIV fusion peptide inhibitor Combinectin) MGHHHHHHGVSDVPRDLEVVAATPTSLLISWDAPAVTVRYYRITYGETGGNSPVQEFTVPGSKSTATISGLKPGVDYTITVYAVTGRGESPASSKPISINYRTEIDGGGGSGGGGSGGGGSGGGGSRIEALIRAAQEQQEKNEAALRELLKWAS",218
12,"416 (protein, Anti-N17 Adnectin - HIV fusion peptide inhibitor Combinectin) MGHHHHHHGVSDVPRDLEVVAATPTSLLISWDAPAVTVRYYRITYGETGGNSPVQEFTVPGSKSTATISGLKPGVDYTITVYAVTGRGESPASSKPISINYRTEIDGGGGSGGGGSGGGGSGGGGSRIEALIRAAQEQQQKNEAALRELDKWAS",> 1000
13,"417 (protein, Anti-N17 Adnectin - HIV fusion peptide inhibitor Combinectin) MGHHHHHHGVSDVPRDLEVVAATPTSLLISWDAPAVTVRYYRITYGETGGNSPVQEFTVPGSKSTATISGLKPGVDYTITVYAVTGRGESPASSKPISINYRTEIDGGGGSGGGGSGGGGSGGGGSRIEALIRAAQEQQEKNEAALRELYKWAS",428
14,"423 (protein, Anti-N17 Adnectin - HIV fusion peptide inhibitor Combinectin) MGHHHHHHGVSDVPRDLEVVAATPTSLLISWDAPAVTVRYYRITYGETGGNSPVQEFTVPGSKSTATISGLKPGVDYTITVYAVTGRGESPASSKPISINYRTEIDGGGGSGGGGSGGGGSGGGGSRIEALIRAAQEQQEKNEAALRELYKWTS",122

# Same assay, conditions: Anti-N17 Adnectin, Table 3
row,Molecule,EC50 [nM]
1,"138 (protein, Adnectin) MGVSDVPRDLEVVAATPTSLLISWHYPFEGYVTYYRITYGETGGNSHVQEFTVPVGYTTATISGLKPGVDYTITVYAVTSSKGYVYFPISINYRTEIDKPSQHHHHHH",3300
2,"352 (protein, Adnectin) MGHHHHHHGGSVSDVPRDLEVVAATPTSLLISWEYKVHPYRYYRITYGETGGNSPVQEFTVPSVLSTATISGLKPGVDYTITVYAVTYGDLSAPISINYRTEID",77
3,"363 (protein, Adnectin) MGHHHHHHGGSVSDVPRDLEVVAATPTSLLISWEYKVHPYRYYRITYGETGGNSPVQEFTVPSVLSTATISGLKPGVDYTITVYAVTYGNDSAPISINYRTEID",130
4,"355 (protein, Adnectin) MGHHHHHHGGSVSDVPRDLEVVAATPTSLLISWEYKVSTYRYYRITYGETGGNSPVQEFTVPSVLSTATISGLKPGVDYTITVYAVTYGDDSAPISINYRTEID",> 1000
5,"358 (protein, Adnectin) MGHHHHHHGGSVSDVPRDLEVVAATPTSLLISWEYKVHPYRYYRITYGETGGNSPVQEFTVPSVLSTATISGLKPGVDYTITVYAVTYGDDSTPISINYRTEID",> 1000
6,"361 (protein, Adnectin) MGHHHHHHGGSVSDVPRDLEVVAATPTSLLISWEYKVYHGRYYRITYGETGGNSPVQEFTVPSVLSTATISGLKPGVDYTITVYAVTYGDDSAPISINYRTEID",> 1000
7,"360 (protein, Adnectin) MGHHHHHHGGSVSDVPRDLEVVAATPTSLLISWEYKVTGYRYYRITYGETGGNSPVQEFTVPSVLSTATISGLKPGVDYTITVYAVTYGDDSAPISINYRTEID",> 1000
8,"353 (protein, Adnectin) MGHHHHHHGGSVSDVPRDLEVVAATPTSLLISWEYKVHPYRYYRITYGETGGNSPVQEFTVPSVLSTATISGLKPGVDYTITVYAVTYGDDSGPISINYRTEID",19
9,"359 (protein, Adnectin) MGHHHHHHGGSVSDVPRDLEVVAATPTSLLISWEYKVSAYRYYRITYGETGGNSPVQEFTVPSVLSTATISGLKPGVDYTITVYAVTYGDDSAPISINYRTEID",> 1000
10,"356 (protein, Adnectin) MGHHHHHHGGSVSDVPRDLEVVAATPTSLLISWEYKVHPYRYYRITYGETGGNSPVQEFTVPSVLSTAELSGLKPGVDYTITVYAVTYGDDSAPISINYRTEID",31
11,"362 (protein, Adnectin) MGHHHHHHGGSVSDVPRDLEVVAATPTSLLISWEYKVHPYRYYRITYGETGGNSPVQEFTVPSVLSTAKLSGLKPGVDYTITVYAVTYGDDSAPISINYRTEID",121
12,"354 (protein, Adnectin) MGHHHHHHGGSVSDVPRDLEVVAATPTSLLISWEYKVSAWRYYRITYGETGGNSPVQEFTVPSVLSTATISGLKPGVDYTITVYAVTYGDDSAPISINYRTEID",> 1000
13,"357 (protein, Adnectin) MGHHHHHHGGSVSDVPRDLEVVAATPTSLLISWEYKVHPYRYYRITYGETGGNSPVQEFTVPSVLSTATISGLKPGVDYTITVYAVTYGDLSAPISINYRTEID",178
